# In the supplement of paper PMC10724198:
# ± gives the standard deviation of the averaged measurements.
# System: Saccharomyces cerevisiae
# Experiment: protein stability index of tFT-peptide fusion (C-terminal peptide) (PSI (0-1 scale)); higher = more stable (slower turnover)
# Conditions: genetic background: wild type; temperature: 30 C
# Protocol: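 Multiplexed protein stability (MPS) profiling in S. cerevisiae. Random 12-aa peptides (tFT-X12 library) are fused to the C-terminus of a sfGFP-mCherry tandem fluorescent timer, after mCherry and a GGGS linker. Cells are FACS-sorted into 8 mCherry/sfGFP bins and deep-sequenced. The protein stability index (PSI) is the read-weighted bin average, scaled from 0 (unstable) to 1 (stable). Only peptides with >10 reads are reported; cells were grown at 30 °C in SC-His with glucose.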
# 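Further: PSI is a weighted mean of sequencing reads over stability bins, variants kept only with over 10 reads, mCherry proximal and sfGFP distal, peptide attached via GGGS linker.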
row,Sequence,protein stability index
1,GGGGVGSSGARV,0.644 ± 0.068
2,GGGGVGTGCQRR,0.668 ± 0.037
3,GGGGVLGVVRVG,0.62 ± 0.033
4,GGGGVWVSWCGW,0.679 ± 0.013
5,GGGHGGVGGGMG,0.612 ± 0.057
6,GGGLSRVEGFGP,0.6681 ± 0.0038
7,GGGLVGVEGGWG,0.6732 ± 0.0057
8,GGGPGGWGGRGR,0.6449 ± 0.0052
9,GGGPGRCAGGGR,0.669 ± 0.024
10,GGGRGEVEGHSG,0.709 ± 0.013
11,GGGRSASGGWGC,0.698 ± 0.024
12,GGGSGGREPGGS,0.726 ± 0.027
13,GGGSGKSGNLYS,0.687 ± 0.06
14,GGGVGGGGVEYG,0.638 ± 0.067
15,GGGVGGGRAWWR,0.699 ± 0.037
16,GGGVGGWGTWVV,0.715 ± 0.1
17,GGGVGRGGVEYG,0.609 ± 0.01
18,GGGVPGGLGREG,0.677 ± 0.043
19,GGGVTRMQQRNG,0.6774 ± 0.002
20,GGGVWGGVFFRL,0.647 ± 0.014
21,GGGVWWGGWGHW,0.73 ± 0.061
22,GGGWGERGRGGS,0.729 ± 0.037
23,GGIGYRRQAAQA,0.673 ± 0.068
24,GGKEEGAGRRGV,0.69 ± 0.059
25,GGKREGEACRQE,0.662 ± 0.13
26,GGLSELGSGIKC,0.673 ± 0.0083

row,Sequence,protein stability index
1,GGLVPPLEGLVR,0.677 ± 0.037
2,GGLWPWGRVVCW,0.687 ± 0.078
3,GGMWGVGRGSVG,0.657 ± 0.068
4,GGPSLLEGGAWA,0.6436 ± 0.0023
5,GGREWWLSDGTV,0.75 ± 0.033
6,GGRGGGGEMGGR,0.651 ± 0.04
7,GGRGRGGEMGGR,0.722 ± 0.033
8,GGRGVEVAGKGW,0.686 ± 0.08
9,GGRGWVGEMGGR,0.784 ± 0.053
10,GGRIITIWNRKM,0.578 ± 0.069
11,GGRRHQRARLPL,0.605 ± 0.018
12,GGRRRPVPQGPR,0.649 ± 0.091
13,GGSGGLGEQGHR,0.76 ± 0.051
14,GGSGHGAGAVWG,0.6979 ± 0.0057
15,GGSGVHRHRPFG,0.666 ± 0.055
16,GGSIGTELAAVI,0.682 ± 0.054
17,GGSRGGRWGLGE,0.746 ± 0.087
18,GGSRRGLGAAGE,0.671 ± 0.022
19,GGTPIGAHVLLR,0.661 ± 0.00077
20,GGVCRARVAETV,0.674 ± 0.0074
21,GGVGGGGREWRR,0.683 ± 0.033
22,GGVGGRGREWRR,0.7 ± 0.028
23,GGVGGVRLVVSR,0.684 ± 0.064
24,GGVGRGVGRGWG,0.671 ± 0.03
25,GGVLGNGCGFGR,0.784 ± 0.065
26,GGVRAAGTGCGG,0.642 ± 0.031

row,Sequence,protein stability index
1,GGVSGESAVVSV,0.649 ± 0.038
2,GGVSRLVGRLGG,0.7055 ± 0.0017
3,GGVVCWACRWEL,0.671 ± 0.04
4,GGVVGWCAGKVV,0.642 ± 0.071
5,GGVVSVYCEVSR,0.625 ± 0.016
6,GGWPWGGFLVDR,0.735 ± 0.012
7,GGWRGWAGENTR,0.699 ± 0.035
8,GGWRRDGSLCGA,0.733 ± 0.14
9,GGWSIVQKRRGG,0.7215 ± 0.0034
10,GGWWVLCGGGWG,0.567 ± 0.025
11,GGYGRAGRDVGG,0.655 ± 0.035
12,GGYLLAGEGTFA,0.702 ± 0.0094
13,GHEQIISIKGIK,0.73 ± 0.049
14,GHVETQTRMASG,0.789 ± 0.19
15,GIGSHSSSNVNP,0.791 ± 0.094
16,GIKKNKIKKKKI,0.624 ± 0.054
17,GIKRKEKEKKNN,0.615 ± 0.026
18,GIMNDMPSLTAT,0.6757 ± 0.0038
19,GISASLRRMTRR,0.623 ± 0.017
20,GISLTVTVRGWL,0.496 ± 0.019
21,GIVFGMRKSDFK,0.764 ± 0.1
22,GIYAWFSGWRKD,0.72 ± 0.015
23,GKAIIIFEQLRR,0.749 ± 0.12
24,GKEGKGEAGIGE,0.686 ± 0.024
25,GKEQIEKKIEGI,0.589 ± 0.009
26,GKGGAEHADQVL,0.669 ± 0.099

row,Sequence,protein stability index
1,GKGGITGWCCHH,0.648 ± 0.04
2,GKHIAEMGNRKN,0.716 ± 0.074
3,GKIGYQLGAVIN,0.709 ± 0.068
4,GKINPKMEIWIE,0.7011 ± 0.0049
5,GKKTTQELGKTK,0.803 ± 0.13
6,GKKYDEAQLRKG,0.709 ± 0.041
7,GKMLCADRSLEY,0.701 ± 0.11
8,GKNIINSKITYK,0.772 ± 0.043
9,GKRKEKLEQTAQ,0.688 ± 0.027
10,GKSGGTGAGEKR,0.661 ± 0.046
11,GKTVRERWATRP,0.651 ± 0.064
12,GKYHIFNPNPKA,0.685 ± 0.012
13,GLAELLLTKPTV,0.652 ± 0.021
14,GLAGWCGGGWAL,0.705 ± 0.026
15,GLAPPRPYPPPA,0.728 ± 0.065
16,GLCRVANGGTER,0.695 ± 0.018
17,GLGGRAAQKCGQ,0.688 ± 0.016
18,GLGQGVGWPWAV,0.678 ± 0.024
19,GLGRRPGVGGVR,0.71 ± 0.0075
20,GLGVPWVRWGWV,0.632 ± 0.019
21,GLGVVHGYFLVE,0.59 ± 0.025
22,GLKNECAIDGVL,0.623 ± 0.045
23,GLLCWVGRWGVF,0.596 ± 0.05
24,GLLGFVLSKDST,0.719 ± 0.052
25,GLLPTPPASLLY,0.6888 ± 0.00085
26,GLLRVGGFWSCL,0.747 ± 0.019

row,Sequence,protein stability index
1,GLLSKVEFEEYQ,0.655 ± 0.014
2,GLLVAGGRNGDC,0.719 ± 0.054
3,GLLYHIRVRSRG,0.66 ± 0.006
4,GLMITSARYVGF,0.641 ± 0.012
5,GLNCGVCFGGGV,0.701 ± 0.025
6,GLPHPPPHPFSL,0.763 ± 0.055
7,GLPSLHGTFRLS,0.69 ± 0.0077
8,GLQLTLINLPLE,0.749 ± 0.029
9,GLSSVVWSGGLC,0.6222 ± 0.0047
10,GLVAVRARGSRA,0.663 ± 0.094
11,GLVGPKDRVSGL,0.701 ± 0.018
12,GLYSRPVNSNSF,0.762 ± 0.022
13,GMDGRGWGGSVV,0.726 ± 0.038
14,GMECFSGRGSEP,0.735 ± 0.062
15,GMIGLAEVGIKC,0.573 ± 0.0067
16,GMPTANMYLLLQ,0.636 ± 0.017
17,GMYRHEGQSWDL,0.7316 ± 0.0065
18,GNEKSSRLRSTT,0.644 ± 0.12
19,GNFGFKVELGVR,0.686 ± 0.031
20,GNIREEYGSTGI,0.7226 ± 0.0032
21,GNKKENEKKEKK,0.734 ± 0.022
22,GNPGRTAHILQL,0.655 ± 0.03
23,GNTGRLERLKRQ,0.734 ± 0.072
24,GNVRRVYMDYQG,0.735 ± 0.039
25,GPCQSPSLVLTC,0.555 ± 0.012
26,GPGSWKWKSRRV,0.6634 ± 0.0034

row,Sequence,protein stability index
1,GPGTAMCLWWWG,0.692 ± 0.0085
2,GPGTSSVARPVS,0.735 ± 0.07
3,GPGYVFVGSGGW,0.692 ± 0.027
4,GPLDEPRIWSHR,0.669 ± 0.0095
5,GPLEGGDGRWVG,0.6852 ± 0.0015
6,GPLNQALLHCSV,0.653 ± 0.021
7,GPPAGGTARSPM,0.694 ± 0.029
8,GPRGGGGWSCES,0.7366 ± 0.0032
9,GPRIVVLKDVII,0.6403 ± 0.0063
10,GPSPFCTIRLKN,0.655 ± 0.018
11,GPSREFGSNWII,0.612 ± 0.034
12,GPSSVGWLFVVC,0.553 ± 0.039
13,GPSTVPGHGSDT,0.689 ± 0.021
14,GPTFPPGLPSSL,0.695 ± 0.09
15,GQEAGRERNNWQ,0.694 ± 0.011
16,GQGEPRRVWGVV,0.6746 ± 0.005
17,GQGGRAGRAADV,0.6532 ± 0.001
18,GQIKIRAFPKSR,0.662 ± 0.052
19,GQPYTHASSSIG,0.685 ± 0.017
20,GQSVRELDSIKV,0.652 ± 0.17
21,GQVSVGAVGSFE,0.642 ± 0.097
22,GRACCILWGGPE,0.694 ± 0.06
23,GRASGGGLGRGR,0.593 ± 0.0086
24,GRDSECCSGGGG,0.683 ± 0.018
25,GRENKWGKGRRE,0.67 ± 0.035
